The values below come from PMC3149064, “Differential Calcium Signaling by Cone Specific Guanylate Cyclase-Activating Proteins from the Zebrafish Retina” (PLoS ONE, 2011).

Series [1] addresses zebrafish guanylate cyclase-activating protein 1 (zebrafish (Danio rerio)). Briefly: SEC; analytical size exclusion chromatography (HPLC) on a BioSep-SEC S2000 column with molecular mass standards, 20 µg purified protein, run in the presence of 0.5 mM EGTA (Ca2+-free); dimer to monomers. For orientation: Size exclusion chromatography separates by hydrodynamic size, large species first.

Series [2] deals with the molecule itself. The description is as above.

Take “zebrafish guanylate cyclase-activating protein 1 (natural protein)”: in series [1], the percent dimers was determined as 18% and the stoichiometry N – broadly, the number of molecules, sites or subunits per partner or assembly – came to 2.

B1: zebrafish guanylate cyclase-activating protein 7 (natural protein, zebrafish (Danio rerio), UniProt Q5MAC7 1-187, looked up)
chain: MGQNQSDEEEEEVELTEIQPLYTRFMKVCPSGALHLHEFRRIFGVQSSSEEEALYMETIFKSFDTNRDNVIDFMEFVAAVHLVLRGNLEDRLKWSFKVYDRDENGKLDRQEVIHVIRILCKLKKNRINMTPVEICDRIFELLDENNDGQISLSEFLEGAEKDAWIMDLLKLDTNARVWFRDNLGKKT
notes: Non-myristoylated; also called zGCAP7; source: anion exchange, ammonium sulfate precipitation, SEC
Consider B1, for which, in series [2], the “stoichiometry N” value came to 2.
